Laboratory results taken from the supplement of paper PMC9170038.

System: MS2 coat protein
Assay: apparent KD of MS2 coat protein; designed switch direction (-1 OFF switch, 1 ON switch): 1; higher = weaker reporter binding
Outline: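 Three titration conditions were used: no input, 200 uM small-molecule ligand, and an oligonucleotide input. In each, SNAP-549-labelled MS2 coat protein was raised from 0.7 or 1.5 nM, doubling, to 3 µM over designed RNA switches transcribed on Illumina chips by stalled E. coli RNA polymerase. Curve fits of normalised cluster fluorescence gave values whose per-design median over clusters is the apparent KD.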

[1] = Eterna round: R95, input ligand: FMN 200 uM
[2] = Eterna round: R95, input ligand: microRNA oligo, concentration not stated
[3] = Eterna round: R95, input ligand: none
[4] = input ligand: microRNA oligo, concentration not stated

| Sequence | apparent KD of MS2 coat protein [1] | apparent KD of MS2 coat protein [2] | apparent KD of MS2 coat protein [3] | apparent KD of MS2 coat protein (input ligand: FMN 200 uM) | apparent KD of MS2 coat protein [4] | apparent KD of MS2 coat protein (input ligand: none) |
| --- | --- | --- | --- | --- | --- | --- |
| UAGAACAAGCUUUUUGCCCGUCUUAGAUAACAUGAGGAUCACCCAUGUAAGGUGAAAGUUAGAGAGUGGAGGAAGAA [JR_SHM208A_Sub054] (puzzle: Sensor for hsa-mir-208a) | 86.4 nM | 217 nM | 146 nM | – | – | – |
| UAGGGACAUGAGGAUCACCCAUGUGCCUCAUAUGGAGAAACUCAGGAUAUGCUGAGGAUCACCCGGCAGAAGGGAGAUUUGACC (Eterna round: R96, puzzle: Same State NG 3) | – | – | – | 24.2 nM | 37.1 nM | 53.2 nM |
| UAGUACAAGCUUUUUGCUUGUCUUAUUUAACAUGAGGAUCACCCAUGUAAGUUGAAAGUUAGAGAGUGGAGGUUGAA [JR_SHM208A_Sub050] (puzzle: Sensor for hsa-mir-208a) | 20 nM | 20.4 nM | 18.8 nM | – | – | – |
| UAGUGAUUGCAAGGAUAUGCUUAUGUUUAAUUUUAUUUAUUAUCUAACAUGAGGAUCACCCAUGUGCAGAAGGUGCUUGAUUUG [JR_SSNG2_Sub074] (Eterna round: R96, puzzle: Same State NG 2) | – | – | – | – | 48.4 nM | – |
| UAGUGCAUUAGAGGAUAUUCUUACGGAAACGUUAAGACAUGAGGAUCACCCAUGUUGUCACAUGGGAAGAAGGCUGAUGUGCUA [Omei SS(NG)2 Bv4] (Eterna round: R96, puzzle: Same State NG 2) | – | – | – | 63.6 nM | 390 nM | 835 nM |
| UAUAAACAUGAGGAUCACCCAUGUAAUAAUAUGGGAGGAUAUCAGAAUUUAUUUAUUUAAUGAGAAGGCCUAAUAU [Mat - Same State 1 - Mod of Eli - D67] (Eterna round: R96, puzzle: Same State 1) | – | – | – | – | 440 nM | – |
| UAUAAACAUGAGGAUCACCCAUGUAAUAAUAUGGGAGGAUAUCAGAAUUUAUUUAUUUAAUGAGAAGGCCUAAUAU [Mat - Same State 1 - Mod of Eli - D67] (puzzle: Same State 1) | 34.5 nM | 210 nM | 562 nM | – | – | – |
| UAUUAGAUCCGAGGAUAUCCUUAUAAGAAACAUGAGGAUCACCCAUGUAAAGGGAAUUAUUUGUAGGAGAAGGCGGAUUUAGUU [JR_SSNG2_Sub055] (Eterna round: R96, puzzle: Same State NG 2) | – | – | – | 28.9 nM | 23 nM | 41.3 nM |
| UCAAGCGAGAGGCUCGUCUUAUGUAAGGUACAUGAGGAUCACCCAUGUGAGGGACGAUUGAGUUAGAUGGAAUGGAG [JR_SHM208A_Sub033] (puzzle: Sensor for hsa-mir-208a) | 42.3 nM | 121 nM | 50.9 nM | – | – | – |
| UCAAGCGUUUGGCUCGUCUUAUGUUUGGUACAUGAGGAUCACCCAUGUUAUGUACGAUCCAGUUAGAUGGUAUUUUG [JR_SHM208A_Sub037] (puzzle: Sensor for hsa-mir-208a) | 35.9 nM | 127 nM | 47.1 nM | – | – | – |
| UCAAUCAUGUAAGGAUAUGCAGCCGAAACGGCUGCAGAAGGUACUAUAAUUACAUGAGGAUCACCCAUGUUAUAAAAUAAAUAU [Mat - Same State NG 1 - JL mod - D80] (Eterna round: R96, puzzle: Same State NG 1) | – | – | – | 40.9 nM | 92.7 nM | 160 nM |
| UCGAGCGUACUUGCAGACAUGAGGAUCACCCAUGUAAAUGGGAAGGAUAUGGUACCGUUUCGGUACCAGAAGGUCCUAAGUGCU [salish99_SSNG3_r04_304] (Eterna round: R96, puzzle: Same State NG 3) | – | – | – | 166 nM | 862 nM | 1440 nM |
| UCUCGGCACGCAGGAUAUCCCGCUUCCUGGUGAGGAGAAGGGUGGUCGGGAAAACAUGAGGAUCACCCAUGUAAAAGUAAGAGG [Usdidige] (Eterna round: R96, puzzle: Same State NG 1) | – | – | – | 41.6 nM | 61.3 nM | 183 nM |
| UCUGCAUGAACAGGAUAUGGGUUCAGAGCGGGAGUGCGCUUUGACACAUGAGGAUCACCCAUGUCCCAGAAGGGUUCAAGCGGC [Rianbein] (Eterna round: R96, puzzle: Same State NG 2) | – | – | – | 47.7 nM | 219 nM | 430 nM |
| UCUUGGUUUUUGCUCGUUUUUUGUGUUGAACAUGAGGAUCACCCAUGUAUUGUACGGUCCAGUUUAAUAAUGGUCCA [JMF 6] (puzzle: Sensor for hsa-mir-208a) | 25.9 nM | 14.4 nM | 26 nM | – | – | – |
| UGAACCUUCACAGGAUAUCAUGCGAAAAUUGCGUGAGAAGGGUGGAUGUGGCGUUCAUAGUUGCACAUGAGGAUCACCCAUGUA [SameState NG1 #50] (Eterna round: R96, puzzle: Same State NG 1) | – | – | – | 257 nM | 212 nM | 134 nM |
| UGAGCCGGCACUGAGGAUAUUCAUAUUUAAACAUGAGGAUCACCCAUGUAGGCCAGAAGGCCUUGGGAGAAGGCAGGUCGGCUCU [salish99_ss2_r3_078] (puzzle: Same State 2) | – | 258 nM | – | – | – | – |
| UGCAUACAUGAGGAUCACCCAUGUCAACGUAGCCGAGGAUAUGGAUUGCCGUGAGGCGUGCCAGAAGGCGGAGAGG [Same State 1 - Mod of Vinnie Teenbexe] (puzzle: Same State 1) | 29.1 nM | 42.5 nM | 59 nM | – | – | – |
| UGCAUACAUGAGGAUCACCCAUGUCAACGUAGUCGAGGAUAUGGGCAGCCGUGAGGCGUACCAGAAGGCGAAGAGG [JL-ss1-3.04 ViennaUCT mod] (puzzle: Same State 1) | 28.7 nM | 62.2 nM | 77.9 nM | – | – | – |
| UGCUAUAGUAUAUUGGUGCAAGCUUUUUGACAUGAGGAUCACCCAUGUACUCGUCUUAAGCGCAGUCCGUAGACUGC (puzzle: Sensor for hsa-mir-208a) | 84.5 nM | 13.8 nM | 89.9 nM | – | – | – |
| UGCUAUUGUAUAUUGGUGCAAGCUUAUUGACAUGAGGAUCACCCAUGUACUCGUCUUAUGUGCAGUCCGUAGACUGC [JL-shm-2.25 Brourd mod] (puzzle: Sensor for hsa-mir-208a) | 72 nM | 13.9 nM | 78.7 nM | – | – | – |
